Test results from paper PMC8695382 (Nature, 2021).

B2: Dia2 (natural protein, Saccharomyces cerevisiae)
chain: MSSPGNSGVAIDSTVLKAIELGTRLFKSGEYLQAKRIFTNALRVCDSYSQEQIMRIRNAYQLDTARPDNKRLYHPRYIKILDNICACYEKLNDLKSCLDVSQRLLKLEPGNIKCYIRCTRTLIKLKDWKRAYKTCSRGLQLCNNDSNHLRQQKQFIKNNMVQKQDGKRSYIDPLEETKIAKKKKNNNVLESLPKKKIKGSTKKTDLVGNLPIEILPIIFQRFTTKELVTLSLVCNKWRDKILYHLDCFQEFNLAPINFKNFVKFMDFLQQNFTRTYRKYILSQVKVSSRITSEELRITQLLFSKMPKCINIERLILSMPTLTTTQIFKLMVRGGTDFFTRLLELSLMITYRPDKQHELEILQTCPLLKKIELIFVNSLVPIFDGNNSVGRDGSFNVMARHTNMQISTADNDEQGIVEEKVIYSELEKITLICDKKKIKNFPLCRALLRGQFPLLQKLTITGVTFPMNNQDIMNFQWLLNFPDLKELWIEDNDNCELSKFLQLLKFSNVWKNLEKLTFRENKLYPIVNLDEDQPVTNDDEVPSMLFYKENLQNLEKLDLMGTSISGSALTRLCEQEYLDGRKLRSLNIGNCPNIQFPNNHAHTARMILDVNAVLKRLSKLEEINLSHLSSLNDSTMKSFIINVPFLENLKRLDISHNFEITGISIYEFLKKFQMDHDNEAGGQPLAYLNIDGCSQVSHITVNMIRAQNLVTQVDCVYERDVWRKFGINSYSYS
notes: Dia2, F-box protein, S. cerevisiae; model built for F-box (211–247), LRRs (248–716) and C-terminal tail (717–732); N-terminal TPR domain not visible; Subunit of m1 as it stands in the cryo-EM samples; also called Dia2^LRR (its leucine-rich repeat domain); source: purified as part of SCF^Dia2
B3: Mcm7 (natural protein, Saccharomyces cerevisiae)
chain: MSAALPSIQLPVDYNNLFNEITDFLVTFKQDTLSSDATRNENEDENLDAENIEQHLLEKGPKYMAMLQKVANRELNSVIIDLDDILQYQNEKFLQGTQADDLVSAIQQNANHFTELFCRAIDNNMPLPTKEIDYKDDVLDVILNQRRLRNERMLSDRTNEIRSENLMDTTMDPPSSMNDALREVVEDETELFPPNLTRRYFLYFKPLSQNCARRYRKKAISSKPLSVRQIKGDFLGQLITVRGIITRVSDVKPAVEVIAYTCDQCGYEVFQEVNSRTFTPLSECTSEECSQNQTKGQLFMSTRASKFSAFQECKIQELSQQVPVGHIPRSLNIHVNGTLVRSLSPGDIVDVTGIFLPAPYTGFKALKAGLLTETYLEAQFVRQHKKKFASFSLTSDVEERVMELITSGDVYNRLAKSIAPEIYGNLDVKKALLLLLVGGVDKRVGDGMKIRGDINVCLMGDPGVAKSQLLKAICKISPRGVYTTGKGSSGVGLTAAVMKDPVTDEMILEGGALVLADNGICCIDEFDKMDESDRTAIHEVMEQQTISISKAGINTTLNARTSILAAANPLYGRYNPRLSPLDNINLPAALLSRFDILFLMLDIPSRDDDEKLAEHVTYVHMHNKQPDLDFTPVEPSKMREYIAYAKTKRPVMSEAVNDYVVQAYIRLRQDSKREMDSKFSFGQATPRTLLGIIRLSQALAKLRLADMVDIDDVEEALRLVRVSKESLYQETNKSKEDESPTTKIFTIIKKMLQETGKNTLSYENIVKTVRLRGFTMLQLSNCIQEYSYLNVWHLINEGNTLKFVDDGTMDTDQEDSLVSTPKLAPQTTASANVSAQDSDIDLQDA
notes: Mcm7, S. cerevisiae; Subunit of m2; source: purified as part of CMG

Assays:
Conditions in all cases: both partners purified
Dia2 = biological target: B2; assay: cryo-EM structure; yeast replisome–SCF^Dia2 complexes after gradient fixation; particles translocated onto dsDNA (conformations I and II)
Mcm3 [1] = biological target: T1, Mcm3 (Saccharomyces cerevisiae, UniProt P24279 1-971); assay: cryo-EM structure; yeast replisome–SCF^Dia2 complexes assembled in the absence of DNA (off DNA); 3.9 Å
T1 construct: Mcm3, S. cerevisiae; Subunit of m2; source: purified as part of CMG

Mcm5 [2] = biological target: T2, Mcm5 (Saccharomyces cerevisiae, UniProt P29496 1-775); assay: as above
T2 construct: Mcm5, S. cerevisiae; Subunit of m2; source: purified as part of CMG
T2 sequence: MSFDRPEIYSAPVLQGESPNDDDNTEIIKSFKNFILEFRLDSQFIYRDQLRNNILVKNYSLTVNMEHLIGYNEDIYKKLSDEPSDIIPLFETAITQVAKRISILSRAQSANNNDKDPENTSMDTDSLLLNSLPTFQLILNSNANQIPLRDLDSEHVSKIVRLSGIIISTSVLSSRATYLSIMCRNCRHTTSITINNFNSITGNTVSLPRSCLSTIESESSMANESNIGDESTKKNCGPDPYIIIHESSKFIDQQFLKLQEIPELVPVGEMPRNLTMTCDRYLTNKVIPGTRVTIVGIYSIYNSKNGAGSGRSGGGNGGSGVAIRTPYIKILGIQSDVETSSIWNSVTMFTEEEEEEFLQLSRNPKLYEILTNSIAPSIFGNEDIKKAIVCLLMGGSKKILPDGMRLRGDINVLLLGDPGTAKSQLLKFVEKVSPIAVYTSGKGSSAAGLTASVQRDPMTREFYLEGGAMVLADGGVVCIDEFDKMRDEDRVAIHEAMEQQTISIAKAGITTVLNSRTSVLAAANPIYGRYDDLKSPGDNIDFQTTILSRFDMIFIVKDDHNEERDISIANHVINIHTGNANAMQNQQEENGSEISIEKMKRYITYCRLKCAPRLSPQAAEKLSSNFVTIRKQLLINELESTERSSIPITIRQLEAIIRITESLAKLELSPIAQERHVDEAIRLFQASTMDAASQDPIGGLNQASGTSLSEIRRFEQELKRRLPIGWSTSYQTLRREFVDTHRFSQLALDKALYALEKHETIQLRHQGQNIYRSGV

Mcm7 = biological target: B3; assay: as above
Mcm3 [3] = biological target: T1, Mcm3; assay: cryo-EM structure; yeast replisome–SCF^Dia2 complexes after gradient fixation; particles translocated onto dsDNA (conformations I and II)
Mcm5 [4] = biological target: T2, Mcm5; assay: as above

T1 sequence (P24279 whole entry): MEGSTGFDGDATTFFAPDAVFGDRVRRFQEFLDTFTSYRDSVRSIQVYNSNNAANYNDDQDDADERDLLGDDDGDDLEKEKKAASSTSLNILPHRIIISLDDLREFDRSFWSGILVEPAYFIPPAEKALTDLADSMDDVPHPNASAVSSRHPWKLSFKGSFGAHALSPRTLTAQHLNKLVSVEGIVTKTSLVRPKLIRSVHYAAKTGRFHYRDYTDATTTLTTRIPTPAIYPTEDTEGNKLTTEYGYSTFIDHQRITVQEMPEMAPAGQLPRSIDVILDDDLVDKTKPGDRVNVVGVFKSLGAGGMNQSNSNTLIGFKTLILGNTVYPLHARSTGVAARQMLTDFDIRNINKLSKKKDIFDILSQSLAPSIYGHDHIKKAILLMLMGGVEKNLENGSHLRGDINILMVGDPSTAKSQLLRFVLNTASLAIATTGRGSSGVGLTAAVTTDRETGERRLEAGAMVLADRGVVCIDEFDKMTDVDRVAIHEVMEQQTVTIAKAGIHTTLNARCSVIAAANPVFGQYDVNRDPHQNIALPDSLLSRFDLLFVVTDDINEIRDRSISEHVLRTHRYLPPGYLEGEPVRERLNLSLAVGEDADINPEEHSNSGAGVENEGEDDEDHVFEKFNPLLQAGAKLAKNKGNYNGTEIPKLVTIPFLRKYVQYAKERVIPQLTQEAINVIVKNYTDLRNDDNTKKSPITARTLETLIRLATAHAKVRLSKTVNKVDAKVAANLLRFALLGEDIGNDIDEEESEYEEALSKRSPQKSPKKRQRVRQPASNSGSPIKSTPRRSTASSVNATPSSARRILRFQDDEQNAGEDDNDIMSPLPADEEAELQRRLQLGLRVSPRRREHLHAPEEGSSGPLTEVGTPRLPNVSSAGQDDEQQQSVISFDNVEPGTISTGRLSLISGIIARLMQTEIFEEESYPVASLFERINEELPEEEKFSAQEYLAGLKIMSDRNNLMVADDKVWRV

B1: Csm3 (natural protein, Saccharomyces cerevisiae)
chain: MDQDFDSLLLGFNDSDSVQKDPTVPNGLDGSVVDPTIADPTAITARKRRPQVKLTAEKLLSDKGLPYVLKNAHKRIRISSKKNSYDNLSNIIQFYQLWAHELFPKAKFKDFMKICQTVGKTDPVLREYRVSLFRDEMGMSFDVGTRETGQDLERQSPMVEEHVTSAEERPIVADSFAQDKRNVNNVDYDNDEDDDIYHLSYRNRRGRVLDERGNNETVLNNVVPPKEDLDALLKTFRVQGPVGLEENEKKLLLGWLDAHRKMEKGSMTEEDVQLIQSLEEWEMNDIEGQHTHYDLLPGGDEFGVDQDELDAMKEMGF
notes: Csm3, S. cerevisiae; Subunit of m12; source: purified as part of Tof1–Csm3
Dia2
  binding result: binds

## B2
Mcm3 [1]
  binding result: binds
Mcm5 [2]
  binding result: binds
Mcm7
  binding result: binds

## B3
Mcm3 [3]
  binding result: binds

B4: Dpb2 (natural protein, Saccharomyces cerevisiae)
chain: MFGSGNVLPVKIQPPLLRPLAYRVLSRKYGLSIKSDGLSALAEFVGTNIGANWRQGPATIKFLEQFAAVWKQQERGLFIDQSGVKEVIQEMKEREKVEWSHEHPIQHEENILGRTDDDENNSDDEMPIAADSSLQNVSLSSPMRQPTERDEYKQPFKPESSKALDWRDYFKVINASQQQRFSYNPHKMQFIFVPNKKQNGLGGIAGFLPDIEDKVQMFLTRYYLTNDRVMRNENFQNSDMFNPLSSMVSLQNELSNTNRQQQSSSMSITPIKNLLGRDAQNFLLLGLLNKNFKGNWSLEDPSGSVEIDISQTIPTQGHYYVPGCMVLVEGIYYSVGNKFHVTSMTLPPGERREITLETIGNLDLLGIHGISNNNFIARLDKDLKIRLHLLEKELTDHKFVILGANLFLDDLKIMTALSKILQKLNDDPPTLLIWQGSFTSVPVFASMSSRNISSSTQFKNNFDALATLLSRFDNLTENTTMIFIPGPNDLWGSMVSLGASGTLPQDPIPSAFTKKINKVCKNVVWSSNPTRIAYLSQEIVIFRDDLSGRFKRHRLEFPFNESEDVYTENDNMMSKDTDIVPIDELVKEPDQLPQKVQETRKLVKTILDQGHLSPFLDSLRPISWDLDHTLTLCPIPSTMVLCDTTSAQFDLTYNGCKVINPGSFIHNRRARYMEYVPSSKKTIQEEIYI
notes: Dpb2, subunit of DNA polymerase ε, S. cerevisiae; Subunit of m15; source: purified as part of Pol-ε
Mcm5 [4]
  binding result: binds
